Experimental data from the supplement of paper PMC7125110.
± gives the standard error. For some of these results: Variants at the floor of the assay were thinned out.

B1: glmS ribozyme (parent)
chain: AUAAAAGCGCCAGAACUACAGAAAUGUAGUUGACGAGGAGGAGGUUUAUCGAAUUUUCGGCGGAUGCCUCCAAA

Tests used:
Settings in all cases: with glucosamine-6-phosphate
[1] = variants of: B1; test: kcat; higher = faster cleavage; RNA array
Method in brief: (§1)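 Barcoded ribozyme variants on sequenced MiSeq chips were transcribed in situ by E. coli RNA polymerase and followed at 37 °C through a hybridised Cy3 probe. Glucosamine-6-phosphate at 40 μM to 10 mM in HEPES/KCl/Mg(OAc)2 buffer was flowed in, and tiles were imaged over ~14 h. Signals were normalised to baseline and to non-cleaving reference variants, and per-tile medians were fit to one- or two-exponential decays to give kobs. Weighted Michaelis–Menten fits across concentrations gave kcat and KM.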

[2] = variants of: B1; test: KM; higher = weaker cofactor use; RNA array
Method in brief: as §1

[3] = variants of: B1; test: self-cleavage kobs at 40 uM GlcN6P; higher = faster cleavage; RNA array
Method in brief: as §1

[4] = variants of: B1; test: self-cleavage kobs at 160 uM GlcN6P; higher = faster cleavage; RNA array
Method in brief: as §1

[5] = variants of: B1; test: self-cleavage kobs at 640 uM GlcN6P; higher = faster cleavage; RNA array
Method in brief: as §1

[6] = variants of: B1; test: self-cleavage kobs at 2500 uM GlcN6P; higher = faster cleavage; RNA array
Method in brief: as §1

[7] = variants of: B1; test: self-cleavage kobs at 10000 uM GlcN6P; higher = faster cleavage; RNA array
Method in brief: as §1

For U30A C68U, the kcat [1] was 0.000818 ± 0.00016 s⁻¹, the KM [2] was 1730 ± 610 µM and the “self-cleavage kobs at 40 uM GlcN6P” value [3] was 3.27e-05 ± 1.2e-05 s⁻¹. For the same variant, the “self-cleavage kobs at 160 uM GlcN6P” value [4] was 9.37e-05 ± 2e-05 s⁻¹, the “self-cleavage kobs at 640 uM GlcN6P” value [5] was 0.000204 ± 2.7e-05 s⁻¹ and the “self-cleavage kobs at 2500 uM GlcN6P” value [6] was 0.000417 ± 6.6e-05 s⁻¹. The “self-cleavage kobs at 10000 uM GlcN6P” value [7] was 0.000776 ± 9.4e-05 s⁻¹.

In the case of A33C U55A, the kcat [1] is reported as 0.000974 ± 0.00015 s⁻¹, the KM [2] is reported as 3160 ± 940 µM and the “self-cleavage kobs at 160 uM GlcN6P” value [4] is reported as 3.03e-05 ± 1.4e-05 s⁻¹. For the same variant, the “self-cleavage kobs at 640 uM GlcN6P” value [5] was 0.000183 ± 3.5e-05 s⁻¹, the “self-cleavage kobs at 2500 uM GlcN6P” value [6] was 0.000519 ± 9.2e-05 s⁻¹ and the “self-cleavage kobs at 10000 uM GlcN6P” value [7] was 0.000717 ± 7.8e-05 s⁻¹.

For A12U U30G, the kcat [1] was 0.0227 ± 0.0046 s⁻¹, the KM [2] was 983 ± 280 µM and the “self-cleavage kobs at 40 uM GlcN6P” value [3] was 0.000931 ± 0.00012 s⁻¹. For the same variant, the “self-cleavage kobs at 640 uM GlcN6P” value [5] was 0.00794 ± 0.0013 s⁻¹, the “self-cleavage kobs at 2500 uM GlcN6P” value [6] was 0.0279 ± 0.0091 s⁻¹ and the “self-cleavage kobs at 10000 uM GlcN6P” value [7] was 0.0211 ± 0.0039 s⁻¹.

With U47C U57A the kcat [1] was 0.000495 ± 0.00012 s⁻¹, the “self-cleavage kobs at 2500 uM GlcN6P” value [6] was 2.94e-05 ± 1.3e-05 s⁻¹ and the “self-cleavage kobs at 10000 uM GlcN6P” value [7] was 0.0001 ± 2.7e-05 s⁻¹.

With A64G U69G the kcat [1] was 4.12e-05 ± 5.6e-06 s⁻¹, the “self-cleavage kobs at 640 uM GlcN6P” value [5] was 4.4e-05 ± 1.2e-05 s⁻¹ and the “self-cleavage kobs at 2500 uM GlcN6P” value [6] was 4.93e-05 ± 1.2e-05 s⁻¹. For the same variant, the “self-cleavage kobs at 10000 uM GlcN6P” value [7] was 3.35e-05 ± 8.6e-06 s⁻¹.

In the case of C50G C70U, the kcat [1] is reported as 0.000103 ± 2.1e-05 s⁻¹, the “self-cleavage kobs at 40 uM GlcN6P” value [3] is reported as 8.81e-05 ± 1e-05 s⁻¹ and the “self-cleavage kobs at 160 uM GlcN6P” value [4] is reported as 0.000129 ± 1.5e-05 s⁻¹. For the same variant, the “self-cleavage kobs at 2500 uM GlcN6P” value [6] was 0.000149 ± 1.4e-05 s⁻¹ and the “self-cleavage kobs at 10000 uM GlcN6P” value [7] was 7.8e-05 ± 8.6e-06 s⁻¹.

For U30G C71A, the kcat [1] was 0.00126 ± 0.0004 s⁻¹, the KM [2] was 1140 ± 560 µM and the “self-cleavage kobs at 40 uM GlcN6P” value [3] was 7.85e-05 ± 1.2e-05 s⁻¹. The “self-cleavage kobs at 160 uM GlcN6P” value [4] was 0.000138 ± 2.2e-05 s⁻¹, the “self-cleavage kobs at 640 uM GlcN6P” value [5] was 0.000344 ± 6.7e-05 s⁻¹ and the “self-cleavage kobs at 2500 uM GlcN6P” value [6] was 0.00096 ± 0.00014 s⁻¹. The “self-cleavage kobs at 10000 uM GlcN6P” value [7] was 0.00119 ± 0.00018 s⁻¹.

In the case of G29A, the kcat [1] is reported as 0.00814 ± 0.00078 s⁻¹, the KM [2] is reported as 1590 ± 200 µM and the “self-cleavage kobs at 40 uM GlcN6P” value [3] is reported as 0.000207 ± 4.5e-06 s⁻¹. For the same variant, the “self-cleavage kobs at 160 uM GlcN6P” value [4] was 0.000639 ± 6.2e-05 s⁻¹, the “self-cleavage kobs at 640 uM GlcN6P” value [5] was 0.00201 ± 9.3e-05 s⁻¹ and the “self-cleavage kobs at 2500 uM GlcN6P” value [6] was 0.00558 ± 0.00024 s⁻¹. The “self-cleavage kobs at 10000 uM GlcN6P” value [7] was 0.00697 ± 0.00023 s⁻¹.

With G9A A42G the kcat [1] was 1.5e-05 ± 2.2e-06 s⁻¹ and the “self-cleavage kobs at 40 uM GlcN6P” value [3] was less than 1e-05 s⁻¹.

G43A U46A was tested, and the kcat [1] was 1.87e-05 ± 2.1e-06 s⁻¹ and the “self-cleavage kobs at 40 uM GlcN6P” value [3] was less than 1e-05 s⁻¹.

With G41U C71U the kcat [1] was 0.000239 ± 3e-05 s⁻¹, the KM [2] was 885 ± 270 µM and the “self-cleavage kobs at 40 uM GlcN6P” value [3] was 1.98e-05 ± 8.9e-06 s⁻¹. The “self-cleavage kobs at 160 uM GlcN6P” value [4] was 4.38e-05 ± 8.4e-06 s⁻¹, the “self-cleavage kobs at 640 uM GlcN6P” value [5] was 8.95e-05 ± 9.5e-06 s⁻¹ and the “self-cleavage kobs at 2500 uM GlcN6P” value [6] was 0.000227 ± 2.9e-05 s⁻¹. For the same variant, the “self-cleavage kobs at 10000 uM GlcN6P” value [7] was 0.000214 ± 1.7e-05 s⁻¹.

With U54G G60C C68G the kcat [1] was 3.07e-05 ± 1.4e-05 s⁻¹.

C11A A39C was tested, and the kcat [1] was 3.87e-05 ± 5.2e-06 s⁻¹, the “self-cleavage kobs at 2500 uM GlcN6P” value [6] was 4.76e-05 ± 1.5e-05 s⁻¹ and the “self-cleavage kobs at 10000 uM GlcN6P” value [7] was 3.53e-05 ± 7.7e-06 s⁻¹.

A6U A12C was tested, and the kcat [1] was 0.000271 ± 9.3e-05 s⁻¹, the “self-cleavage kobs at 2500 uM GlcN6P” value [6] was 0.000111 ± 3.2e-05 s⁻¹ and the “self-cleavage kobs at 10000 uM GlcN6P” value [7] was 0.000168 ± 2.9e-05 s⁻¹.

With A52U U69G the kcat [1] was 2.57e-05 ± 7.6e-06 s⁻¹, the “self-cleavage kobs at 160 uM GlcN6P” value [4] was 4.23e-05 ± 1.1e-05 s⁻¹ and the “self-cleavage kobs at 640 uM GlcN6P” value [5] was 3.97e-05 ± 1e-05 s⁻¹. For the same variant, the “self-cleavage kobs at 2500 uM GlcN6P” value [6] was 2.11e-05 ± 7.8e-06 s⁻¹.
